# Measured values published in article PMC4642536, “Structural analysis of fungus-derived FAD glucose dehydrogenase” (Scientific Reports, 2015).
# B1: glucose oxidase (enzyme, UniProt P13006 17-605, looked up)
# chain: LPHYIRSNGIEASLLTDPKDVSGRTVDYIIAGGGLTGLTTAARLTENPNISVLVIESGSYESDRGPIIEDLNAYGDIFGSSVDHAYETVELATNNQTALIRSGNGLGGSTLVNGGTWTRPHKAQVDSWETVFGNEGWNWDNVAAYSLQAERARAPNAKQIAAGHYFNASCHGVNGTVHAGPRDTGDDYSPIVKALMSAVEDRGVPTKKDFGCGDPHGVSMFPNTLHEDQVRSDAAREWLLPNYQRPNLQVLTGQYVGKVLLSQNGTTPRAVGVEFGTHKGNTHNVYAKHEVLLAAGSAVSPTILEYSGIGMKSILEPLGIDTVVDLPVGLNLQDQTTATVRSRITSAGAGQGQAAWFATFNETFGDYSEKAHELLNTKLEQWAEEAVARGGFHNTTALLIQYENYRDWIVNHNVAYSELFLDTAGVASFDVWDLLPFTRGYVHILDKDPYLHHFAYDPQYFLNELDLLGQAAATQLARNISNSGAMQTYFAGETIPGDNLAYDADLSAWTEYIPYHFRPNYHGVGTCSMMPKEMGGVVDNAARVYGVQGLRVIDGSIPPTQMSSHVMTVFYAMALKISDAILEDYASMQ
# notes: glucose oxidase (GOx) used as the comparison in size exclusion chromatography; probably the glycosylated enzyme; also called GOx
# Target: the molecule itself
# Test: SEC; size exclusion chromatography of GOx as comparison to AfGDH; elution volume corresponding to the dimer; conditions not shown (Supplementary Figure S4)
protein,measurement,value
B1,stoichiometry N,2
